The values that follow come from patent US11512128B2, “VEGF/DLL4 binding agents and uses thereof” (MEREO BIOPHARMA 5, INC., priority 2011, dated 2022).

Test [1] deals with T1, mouse VEGF165 (Mus musculus, UniProt Q00731).
T1 sequence (Q00731 27-190 isoform Q00731-2): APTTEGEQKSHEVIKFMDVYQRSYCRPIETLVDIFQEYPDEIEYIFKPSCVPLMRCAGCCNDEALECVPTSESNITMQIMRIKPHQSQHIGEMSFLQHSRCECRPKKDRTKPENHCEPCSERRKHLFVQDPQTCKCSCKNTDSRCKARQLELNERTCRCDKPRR
Put plainly: Biacore binding affinity (KD) to mouse VEGF. Here is the method:
(§1) The KDs of parental antibodies anti-VEGF 219R45 (IgG format), anti-DLL4 21R79 (IgG format), anti-DLL4 21M18 (IgG format) and bispecific antibodies 219R45-MB-21M18 and 219R45-MB-21R79 were determined using a Biacore 2000 system from Biacore LifeSciences (GE Healthcare). Recombinant human DLL4-Fc or mouse DLL4-Fc proteins were immobilized on CM5 carboxyl chips using standard amine-based chemistry (NHS/EDC) and blocked with ethanolamine. Recombinant human VEGF165 or mouse VEGF165 were biotinylated and immobilized on streptavidin chips. The antibodies were serially diluted 2-fold from 100 nM to 0.78 nM in HBS-P (0.01M HEPES pH7.4, 0.15M NaCl, 0.005% v/v Polysorbate 20). For each antibody, all 8 dilutions were sequentially injected over a specific chip. Kinetic data were collected over time and were fit using the simultaneous global fit equation to yield affinity constants (KD values) for each bispecific antibody.
A general note: SPR reads the build-up and loss of mass on a sensor chip optically.

Test [2] has as its target mouse DLL4-Fc. Kind of test: Biacore binding affinity (KD) to mouse DLL4. As to conditions: Biacore 2000, mouse DLL4-Fc on CM5 chip; read-out: KD mDLL4. The procedure:
as §1

Test [3] concerns DLL4-induced Notch signaling. Kind of test: DLL4-induced Notch signaling luciferase reporter assay in Notch2-expressing PC3 cells. In kind it is cell-based. The following applies: coated human DLL4 100 ng/well, antibody 20 to 0.064 ug/ml. The procedure: FIG. 4. Inhibition of DLL4-induced Notch signaling by anti-VEGF/anti-DLL4 bispecific antibodies. Luciferase activity was measured using a dual luciferase assay kit with firefly luciferase activity normalized to Renilla luciferase activity. 219R45-MB-21M18 (-●-); 219R45-MB-21R79 (-▪-); 21M18 (-∘-); 21R79 (-□-).
Human PC3 cells were transfected with an expression vector encoding a full-length human Notch2 receptor and a firefly luciferase reporter vector (8× CBF-luciferase reporter) that is responsive to Notch signaling. The cells were also transfected with a Renilla luciferase reporter (Promega, Madison, Wis.) as an internal control for transfection efficiency. Purified human DLL4 protein was coated onto 96-well plates at 100 ng/well and Notch2-expressing PC3-luc cells were added to the wells. Anti-VEGF/anti-DLL4 bispecific antibodies 219R45-MB-21M18, 219R45-MB-21R79, parental anti-DLL4 antibodies 21M18, 21R79 or a control antibody LZ1 were serially diluted 5-fold from 20 ug/ml to 0.064 ug/ml, added to the appropriate wells, and incubated overnight. Luciferase activity was determined using a dual luciferase assay kit (Promega, Madison, Wis.) with firefly luciferase activity normalized to Renilla luciferase activity.
Background: A reporter such as luciferase makes a cellular process visible.

The subject of test [4] is OMP-PN8 pancreatic tumor cells. Put plainly: Tumorigenicity of OMP-PN8 pancreatic tumor cells after treatment (serial transplantation). The following applies: 90 cells from treated tumors transplanted, day 55, no treatment; 21M18, bevacizumab 15 mg/kg, bispecifics 30 mg/kg, gemcitabine 70 mg/kg, four weeks. In kind it is in vivo, NOD/SCID mice. Here is the method:
FIG. 6. Tumorigenicity of pancreatic tumor cells after treatment with anti-VEGF/anti-DLL4 bispecific antibodies. OMP-PN8 tumor cells from mice treated with control antibody, anti-hDLL4 antibody 21M18, anti-VEGF antibody bevacizumab, or anti-VEGF/anti-DLL4 bispecific antibodies 219R45-MB-21M18 or 219R45-MB-21R79 with or without gemcitabine were processed to single cell suspensions, and serially transplanted into mice. 90 cells from each treatment group were injected subcutaneously into NOD/SCID mice. Tumors were allowed to grow with no treatment. Data is shown as tumor volume (mm^3) on day 55. Tumor frequency is shown as number of tumors over total number of mice injected in each group.
Mice bearing OMP-PN8 pancreatic tumors were treated with control antibody (15 mg/kg), anti-hDLL4 antibody 21M18 (15 mg/kg), anti-VEGF antibody bevacizumab (15 mg/kg), or anti-VEGF/anti-DLL4 bispecific antibodies 219R45-MB-21M18 or 219R45-MB-21R79 (30 mg/kg) with or without gemcitabine (70 mg/kg). Following four weeks of treatment, tumors were harvested, processed to single cell suspensions and the human tumor cells were purified by immunomagnetic depletion of murine cells. 90 human tumor cells from each treatment group were transferred to a new cohort of mice (n=10 mice/group). Tumors were allowed to grow for 55 days without any treatment and tumor volumes were measured with electronic calipers.

Test [5] concerns OMP-C8 colon tumor. Put plainly: Tumorigenicity of OMP-C8 colon tumors after treatment (serial transplantation). In kind it is in vivo, NOD/SCID mice. As to conditions: 150 cells from treated tumors transplanted, day 68. Here is the method: FIG. 10. Tumorigenicity of […] colon tumor cells after treatment with anti-VEGF/anti-DLL4 bispecific antibodies. Tumors from mice treated with control antibody, anti-hDLL4 antibody 21M18, anti-VEGF antibody bevacizumab, a combination of 21M18 and bevacizumab, or anti-VEGF/anti-DLL4 bispecific antibodies 219R45-MB-21M18 or 219R45-MB-21R79 with or without irinotecan were processed to single cell suspensions, and serially transplanted into mice. 150 cells from each treatment group were injected subcutaneously into NOD/SCID mice. Tumors were allowed to grow with no treatment. Data are shown as tumor volume (mm^3) on day 68.
Single cell suspensions of OMP-C8 colon tumor xenografts (20,000 cells) were injected subcutaneously into the flanks of 6-8 week old NOD/SCID mice. Tumors were allowed to grow for 33 days until they reached an average volume of 300 mm^3. The mice were randomized (n=5 per group) and treated with anti-DLL4 antibody 21M18, anti-VEGF antibody bevacizumab, a combination of antibodies 21M18 and bevacizumab, anti-VEGF/anti-DLL4 bispecific antibody 219R45-MB-21M18, anti-VEGF/anti-DLL4 bispecific antibody 219R45-MB-21R79, or control antibody, either in combination with irinotecan or without irinotecan. Antibodies and irinotecan were dosed weekly by injection into the intraperitoneal cavity. Antibodies 21M18 and bevacizumab were dosed at 7.5 mg/kg, bispecific antibodies 219R45-MB-21M18 and 219R45-MB-21R79 were dosed at 15 mg/kg, and irinotecan was dosed at 45 mg/kg. Tumors were harvested after 4 weeks, processed into single cell suspensions, and the human tumor cells were isolated. 150 tumor cells from each experimental group were injected subcutaneously into a new cohort of mice (n=10 per group) and tumors were allowed to grow without treatment. Tumor growth was monitored and tumor volumes were measured with electronic calipers.

Bounds are passed on as bounds.

Chain of mouse DLL4-Fc (Q9JI71 27-519 limits assumed): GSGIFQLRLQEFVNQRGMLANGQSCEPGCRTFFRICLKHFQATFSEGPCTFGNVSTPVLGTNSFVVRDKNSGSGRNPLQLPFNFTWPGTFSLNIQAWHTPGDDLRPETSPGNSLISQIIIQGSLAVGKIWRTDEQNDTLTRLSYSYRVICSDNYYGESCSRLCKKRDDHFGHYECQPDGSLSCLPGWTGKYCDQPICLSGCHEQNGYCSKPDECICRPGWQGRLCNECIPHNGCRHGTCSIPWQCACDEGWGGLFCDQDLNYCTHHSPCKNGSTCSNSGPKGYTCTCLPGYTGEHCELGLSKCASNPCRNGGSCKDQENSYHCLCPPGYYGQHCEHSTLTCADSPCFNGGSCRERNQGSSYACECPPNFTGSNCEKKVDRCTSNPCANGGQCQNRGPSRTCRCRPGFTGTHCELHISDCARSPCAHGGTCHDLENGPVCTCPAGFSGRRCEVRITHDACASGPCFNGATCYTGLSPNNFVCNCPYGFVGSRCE

B1: 219R45-MB-21M18: anti-VEGF/anti-DLL4 monovalent/bispecific antibody, heavy chains SEQ ID NO:7 and 5, light chains SEQ ID NO:8 (antibody)
heavy 1: QVQLVQSGAEVKKPGASVKVSCKASGYTFTNYWMHWVRQAPGQGLEWMGDINPSNGRTSYKEKFKRRVTLSVDKSSSTAYMELSSLRSEDTAVYFCTIHYDDKYYPLMDYWGQGTLVTVSSASTKGPSVFPLAPCSRSTSESTAALGCLVKDYFPEPVTVSWNSGALTSGVHTFPAVLQSSGLYSLSSVVTVPSSNFGTQTYTCNVDHKPSNTKVDKTVERKCCVECPPCPAPPVAGPSVFLFPPKPKDTLMISRTPEVTCVVVDVSHEDPEVQFNWYVDGVEVHNAKTKPREEQFNSTFRVVSVLTVVHQDWLNGKEYKCKVSNKGLPAPIEKTISKTKGQPREPQVYTLPPSREKMTKNQVSLTCLVKGFYPSDIAVEWESNGQPENNYKTTPPMLKSDGSFFLYSKLTVDKSRWQQGNVFSCSVMHEALHNHYTQKSLSLSPGK
heavy 2: QVQLVQSGAEVKKPGASVKISCKASGYSFTAYYIHWVKQAPGQGLEWIGYISSYNGATNYNQKFKGRVTFTTDTSTSTAYMELRSLRSDDTAVYYCARDYDYDVGMDYWGQGTLVTVSSASTKGPSVFPLAPCSRSTSESTAALGCLVKDYFPEPVTVSWNSGALTSGVHTFPAVLQSSGLYSLSSVVTVPSSNFGTQTYTCNVDHKPSNTKVDKTVERKCCVECPPCPAPPVAGPSVFLFPPKPKDTLMISRTPEVTCVVVDVSHEDPEVQFNWYVDGVEVHNAKTKPREEQFNSTFRVVSVLTVVHQDWLNGKEYKCKVSNKGLPAPIEKTISKTKGQPREPQVYTLPPSREEMTKNQVSLTCLVEGFYPSDIAVEWESNGQPENNYKTTPPMLDSDGSFFLYSELTVDKSRWQQGNVFSCSVMHEALHNHYTQKSLSLSPGK
light: DIVMTQSPDSLAVSLGERATISCRASESVDNYGISFMKWFQQKPGQPPKLLIYAASNQGSGVPDRFSGSGSGTDFTLTISSLQAEDVAVYYCQQSKEVPWTFGGGTKVEIKRTVAAPSVIFPPSDEQLKSGTASVVCLLNNFYPREAKVQWKVDNALQSGNSQESVTEQDSKDSTYSLSSTLTLSKADYEKHKVYACEVTHQGLSSPVTKSFNRGEC
modifications: 21R79 Heavy chain without predicted signal sequence; 21M18 Heavy chain without predicted signal sequence; Light chain without predicted signal sequence
For B1, the “binding to mouse VEGF (in words)” value in test [1] is on record as “bind mouse VEGF”. The Kd in test [2] is more than 100 nM. Besides, in test [3], the “inhibition of DLL4-induced Notch signaling” value is “inhibited DLL4-induced Notch signaling only at high antibody concentrations”. In addition, the “tumor growth frequency (mice with tumors)” value in test [4] is given as 5 out of 10. In addition, the “tumor growth frequency, combination of irinotecan and antibodies” value in test [5] (with irinotecan 45 mg/kg) was “had the greatest effect in reducing tumor growth frequency”. In addition, in test [5] (without irinotecan combination), the “tumor growth frequency, single agents” value is given as “reduced tumor growth frequency”.

By Kd is commonly meant the constant that tells how readily two partners part at equilibrium.
